Results reported in patent US20260137822A1 (ABDERA THERAPEUTICS, published 2026).

T1: mouse DLL3 (recombinant antigen) (mouse, UniProt O88516 25-477, limits assumed)
T1 construct: also called mDLL3
T1 sequence (looked up): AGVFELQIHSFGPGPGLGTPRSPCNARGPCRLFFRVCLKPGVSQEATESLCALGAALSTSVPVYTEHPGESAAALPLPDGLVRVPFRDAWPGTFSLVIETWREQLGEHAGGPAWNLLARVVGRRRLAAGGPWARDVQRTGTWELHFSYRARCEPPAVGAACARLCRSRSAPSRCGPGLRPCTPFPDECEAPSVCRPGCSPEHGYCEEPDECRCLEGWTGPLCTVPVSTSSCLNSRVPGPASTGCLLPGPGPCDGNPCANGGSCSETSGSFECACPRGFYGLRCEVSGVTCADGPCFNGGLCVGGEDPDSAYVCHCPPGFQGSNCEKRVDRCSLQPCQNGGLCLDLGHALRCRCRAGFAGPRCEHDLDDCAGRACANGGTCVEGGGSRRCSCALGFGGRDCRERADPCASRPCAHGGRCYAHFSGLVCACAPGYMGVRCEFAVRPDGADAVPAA

T2: human DLL3 (recombinant antigen) (human, UniProt Q9NYJ7 27-492, limits assumed)
T2 construct: also called hDLL3
T2 sequence (looked up): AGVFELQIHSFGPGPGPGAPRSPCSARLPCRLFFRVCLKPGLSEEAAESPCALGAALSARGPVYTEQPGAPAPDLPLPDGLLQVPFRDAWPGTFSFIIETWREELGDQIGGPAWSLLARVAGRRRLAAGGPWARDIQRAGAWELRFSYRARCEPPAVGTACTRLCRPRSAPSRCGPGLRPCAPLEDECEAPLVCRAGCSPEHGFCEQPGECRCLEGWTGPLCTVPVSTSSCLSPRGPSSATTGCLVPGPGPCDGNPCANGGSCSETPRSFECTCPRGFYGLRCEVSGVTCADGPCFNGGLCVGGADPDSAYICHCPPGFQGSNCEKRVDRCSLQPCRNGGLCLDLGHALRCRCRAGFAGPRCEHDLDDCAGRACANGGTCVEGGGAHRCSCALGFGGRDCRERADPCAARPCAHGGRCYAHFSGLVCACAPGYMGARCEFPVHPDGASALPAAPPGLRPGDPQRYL

T3: human DLL3 on cells (HEK293T cells expressing human DLL3; SHP-77 cells) (human, UniProt Q9NYJ7 27-618)
T3 construct: whole, on cells; also called HEK-DLL3
T3 sequence (looked up): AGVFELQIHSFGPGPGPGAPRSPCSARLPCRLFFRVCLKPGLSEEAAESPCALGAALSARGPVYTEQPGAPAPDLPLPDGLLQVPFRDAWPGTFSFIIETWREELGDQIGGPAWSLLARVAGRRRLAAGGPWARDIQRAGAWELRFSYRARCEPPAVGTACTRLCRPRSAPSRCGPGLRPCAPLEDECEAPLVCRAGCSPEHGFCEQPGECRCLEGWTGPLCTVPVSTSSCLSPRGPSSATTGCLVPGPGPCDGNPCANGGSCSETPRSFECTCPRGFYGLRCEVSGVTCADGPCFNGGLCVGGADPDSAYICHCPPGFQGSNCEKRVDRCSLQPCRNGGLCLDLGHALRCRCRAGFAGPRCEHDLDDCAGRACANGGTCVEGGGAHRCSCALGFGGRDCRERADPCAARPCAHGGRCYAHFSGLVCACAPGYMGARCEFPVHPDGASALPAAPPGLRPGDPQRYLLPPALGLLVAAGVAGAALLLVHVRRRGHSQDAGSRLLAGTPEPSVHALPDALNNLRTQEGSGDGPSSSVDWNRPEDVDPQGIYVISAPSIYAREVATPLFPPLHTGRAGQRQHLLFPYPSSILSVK


Columns and labels:
[1] = biological target: T4, human FOLR1 (recombinant antigen) (human, UniProt P15328 25-234, limits assumed); assay: ELISA on hFOLR1
T4 construct: also called hFOLR1

[2] = biological target: T4, human FOLR1 (recombinant antigen); assay: BLI (Octet), construct captured on AHC biosensor, hFOLR1 as analyte
Protocol: (§1) Antibody affinity was assessed using Octet Red96e (ForteBio). […] Each cycle was performed with orbital shake speed of 1,000 rpm. […] A set of AHC biosensors was dipped in kinetics buffer for baseline step of 60s. Anti-Target VHH-Fc (5 μg/mL, in kinetics buffer) was loaded onto the biosensors for 240 s followed by a second baseline step of 30 s. The IgG captured sensors were dipped into buffer for single reference subtraction to compensate natural dissociation of capture IgG. Each biosensor was then dipped into corresponding concentration of target protein (human, murine or cynomolgus monomeric protein) for 600 s, followed by 1800 s of dissociation time in kinetics buffer, or conditions as optimized. A new set of AHC biosensors was used for every VHH-Fc. The data was analysed by global fit 1:1 model for the association and dissociation step, (Octet software version v11.0).
(§2) Tetramers and VHH-Fcs were assessed for affinity to target antigens. AHC Octet biosensors were used to capture tetramer/VHH-Fc and then dipped into antigen.

[3] = biological target: T5, mouse FOLR1 (recombinant antigen) (mouse, UniProt P35846 25-232, limits assumed); assay: ELISA on mFOLR1
T5 construct: also called mFOLR1

[4] = biological target: T6, FOLR1 on OVCAR3 cells (UniProt P15328 25-234); assay: cell binding to FOLR1-positive OVCAR3 cells
T6 construct: whole, on cells; OVCAR3 is a human ovarian cancer line; also called FOLR1-positive OVCAR3 cells

[5] = biological target: T1, mouse DLL3 (recombinant antigen); assay: BLI (Octet), construct captured on AHC biosensor, mDLL3 as analyte; row label taken as a misprint for the bispecific
Protocol: as §1, §2

[6] = biological target: T5, mouse FOLR1 (recombinant antigen); assay: BLI (Octet), construct captured on AHC biosensor, mFOLR1 as analyte
Protocol: as §1, §2

[7] = biological target: T2, human DLL3 (recombinant antigen); assay: BLI (Octet), construct captured on AHC biosensor, hDLL3 as analyte
Protocol: as §1, §2

[8] = biological target: T3, human DLL3 on cells (HEK293T cells …); assay: flow cytometry on SHP-77 cells (endogenous DLL3), H435Q-Fc format
[9] = biological target: T3, human DLL3 on cells (HEK293T cells …); assay: cell-based or functional assay
[10] = biological target: T2, human DLL3 (recombinant antigen); assay: affinity to hDLL3, H435Q-Fc format; method not given
[11] = biological target: T5, mouse FOLR1 (recombinant antigen); assay: BLI (Octet), VHH-Fc captured on AHC biosensor, mFOLR1 as analyte
Protocol: as §1
(§3) AHC Octet biosensors were used to capture tetramer/VHH-Fc and then dipped into antigen.

[12] = biological target: T2, human DLL3 (recombinant antigen); assay: BLI (Octet), VHH-Fc captured on AHC biosensor, hDLL3 as analyte
Protocol: as §1, §3

[13] = biological target: T1, mouse DLL3 (recombinant antigen); assay: BLI (Octet), VHH-Fc captured on AHC biosensor, mDLL3 as analyte
Protocol: as §1, §3

[14] = biological target: T4, human FOLR1 (recombinant antigen); assay: BLI (Octet), VHH-Fc captured on AHC biosensor, hFOLR1 as analyte
Protocol: as §1, §3

T4 sequence (P15328 25-234 limits assumed): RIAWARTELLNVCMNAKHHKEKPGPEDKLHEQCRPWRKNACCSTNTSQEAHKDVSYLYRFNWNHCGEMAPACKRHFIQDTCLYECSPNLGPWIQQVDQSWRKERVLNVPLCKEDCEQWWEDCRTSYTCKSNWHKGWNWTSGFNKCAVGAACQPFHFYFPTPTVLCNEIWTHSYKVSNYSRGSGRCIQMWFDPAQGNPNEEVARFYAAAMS
T6 sequence (P15328 25-234): as the sequence (P15328 25-234 limits assumed) above
T5 sequence (P35846 25-232 limits assumed): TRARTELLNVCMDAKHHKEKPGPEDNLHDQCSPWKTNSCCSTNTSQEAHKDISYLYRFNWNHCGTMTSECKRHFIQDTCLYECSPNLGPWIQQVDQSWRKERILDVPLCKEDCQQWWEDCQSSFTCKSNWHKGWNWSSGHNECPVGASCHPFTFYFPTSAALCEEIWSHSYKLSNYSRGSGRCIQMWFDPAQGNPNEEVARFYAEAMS

EC50 [1]	Kd [2]	koff [2]	kon [2]	EC50 [3]	EC50 [4]	Kd [5]	koff [5]	kon [5]	Kd [6]	koff [6]	kon [6]	Kd [7]	koff [7]	kon [7]	EC50 [8]	H435Q-Fc SHP-77 Internalization FOI [9]	Kd [10]	Binder	other results
0.11 nM	2.32 nM	0.000932 s⁻¹	401000 M⁻¹ s⁻¹	0.07 nM	0.59 nM	2.88 nM	0.000642 s⁻¹	223000 M⁻¹ s⁻¹	7.99 nM	0.00386 s⁻¹	483000 M⁻¹ s⁻¹	1.24 nM	0.000267 s⁻¹	215000 M⁻¹ s⁻¹				Anti-FOLR1x2; Anti-DLL3x2; GGSx4 (bispecific tetravalent VHH-VHH-Fc) (bispecific antibody, not shown: a dimerising Fc or GST, homodimer; 104,665 Da; also called (GGS)4) QVQLVESGGGLVQPGGSLRLSCAASGFTVSNSVMAWYRQTPGNEREFVAIINSIGITNYADSVKGRFTISRDNSKNTLYLQMNSLRAEDTAVYVCNRNFDRIYWGQGTLVTVSSGGSGGSGGSGGSEVQLVESGGGEVQPGGSLRLSCAASGSIFSINAMGWYRQAPGKQRELVAGFTGDTNTIYAESVKGRFTISRDNAKNTVYLQMSSLRAEDTAVYYCAADVQLFSRDYEFYWGQGTLVTVKP	
															1.16 nM	1.19 fold over isotype	0.2 nM	Clone 100 VHH-Fc, H435Q-Fc format (Fc fusion, also called 100 (H435Q-Fc); not shown: hinge and human IgG1 Fc with H435Q (EU)) QVQLVESGGGSVQPGGSLRLSCAASGIVFNSDVMGWYRQVPGKPRELVATITGGGSTNYATSVKGRFTISRDNAKNTVYLQMNSLRPEDTAVYYCNGRRGDSMLAFWAQGTQVTVSS	
															0.47 nM	1.18 fold over isotype	0.55 nM	Clone 186 VHH-Fc, H435Q-Fc format (Fc fusion, also called 186 (H435Q-Fc); not shown: hinge and human IgG1 Fc with H435Q (EU)) QVQVVESGGGLVQPGGSLTLSCAASGFDFSTYTVNWYRQAPGKEREKVARISSTGTTTNYANSAKGRFTLSRDNAKNRVYLQMNNLKPEDTAVYFCNFERFDSNYWGQGTQVTVSS	
0.14 nM	2.68 nM	0.00102 s⁻¹	381000 M⁻¹ s⁻¹	0.09 nM	0.58 nM	2.92 nM	0.000659 s⁻¹	226000 M⁻¹ s⁻¹	7 nM	0.00399 s⁻¹	553000 M⁻¹ s⁻¹	1.43 nM	0.000312 s⁻¹	219000 M⁻¹ s⁻¹				Anti-FOLR1x2; Anti-DLL3x2; GGSx3 (bispecific tetravalent VHH-VHH-Fc) (bispecific antibody, not shown: a dimerising Fc or GST, homodimer; 104,263 Da; also called (GGS)3) QVQLVESGGGLVQPGGSLRLSCAASGFTVSNSVMAWYRQTPGNEREFVAIINSIGITNYADSVKGRFTISRDNSKNTLYLQMNSLRAEDTAVYVCNRNFDRIYWGQGTLVTVSSGGSGGSGGSEVQLVESGGGEVQPGGSLRLSCAASGSIFSINAMGWYRQAPGKQRELVAGFTGDTNTIYAESVKGRFTISRDNAKNTVYLQMSSLRAEDTAVYYCAADVQLFSRDYEFYWGQGTLVTVKP	
0.12 nM				0.08 nM														FOLR1 VHH (VHH-Fc control) (Fc fusion, not shown: a dimerising Fc or GST) QVQLVESGGGLVQPGGSLRLSCAASGFTVSNSVMAWYRQTPGNEREFVAIINSIGITNYADSVKGRFTISRDNSKNTLYLQMNSLRAEDTAVYVCNRNFDRIYWGQGTLVTVSS	Kd [11]: 4.67 nM; koff [11]: 0.00312 s⁻¹; kon [11]: 668000 M⁻¹ s⁻¹; binding result [12]: no binding; binding result [13]: no binding; Kd [14]: 2.19 nM; koff [14]: 0.000828 s⁻¹; kon [14]: 379000 M⁻¹ s⁻¹
															1.2 nM	1.19 fold over isotype	1.08 nM	Clone 24 VHH-Fc, H435Q-Fc format (Fc fusion, also called 24 (H435Q-Fc); not shown: hinge and human IgG1 Fc with H435Q (EU)) QVQYVESGGGLVQPGGSLRLSCAASGFTFSSYRINWYRQPPGKGRELVGSITDTGSTNYADSVKGRFTISRDNAKNTVYLQMSSLKPEDTAVYYCRAPTIAAYWGQGTQVTVSS	
0.13 nM	2.75 nM	0.00111 s⁻¹	405000 M⁻¹ s⁻¹	0.08 nM	0.7 nM	3.09 nM	0.000684 s⁻¹	222000 M⁻¹ s⁻¹	8.32 nM	0.00407 s⁻¹	490000 M⁻¹ s⁻¹	1.53 nM	0.000306 s⁻¹	200000 M⁻¹ s⁻¹				Anti-FOLR1x2; Anti-DLL3x2; GGGGSx3 (bispecific tetravalent VHH-VHH-Fc) (bispecific antibody, not shown: a dimerising Fc or GST, homodimer; 104,948 Da; also called (GGGGS)3) QVQLVESGGGLVQPGGSLRLSCAASGFTVSNSVMAWYRQTPGNEREFVAIINSIGITNYADSVKGRFTISRDNSKNTLYLQMNSLRAEDTAVYVCNRNFDRIYWGQGTLVTVSSGGGGSGGGGSGGGGSEVQLVESGGGEVQPGGSLRLSCAASGSIFSINAMGWYRQAPGKQRELVAGFTGDTNTIYAESVKGRFTISRDNAKNTVYLQMSSLRAEDTAVYYCAADVQLFSRDYEFYWGQGTLVTVKP	
															0.44 nM	1.19 fold over isotype	< 1 nM	Clone 126 VHH-Fc, H435Q-Fc format (Fc fusion, not shown: hinge and human IgG1 Fc with H435Q (EU)) QVQLVESGGGMVQPGGSLRLSCAASGITFSMYSMSWYRQPPGKQRELVAATTTFGSTNYADSVKGRFTISRDNAKNTVYLQMNSLKPEDTAVYLCNARFTSEEYWGQGTQVTVSS	
															0.74 nM	1.27 fold over isotype	0.72 nM	Clone 107 VHH-Fc, H435Q-Fc format (Fc fusion, not shown: hinge and human IgG1 Fc with H435Q (EU)) QVQLVESGGGLVQAGDSLRLSCVASDRTFSSYAVGWFRQAPGKEREFVAAISWNGGRTLYTDSVTGRFTISRDNAKSTVYLQMNGLKPEDTAVYYCAARPAAPTRRLEYDYWGQGTQVTVSS	
